PMC2396407

Key:
[1] = molecular target: T1, TAp63γ (UniProt Q9H3D4-5 40-487); experiment: EMSA, supershift
T1 sequence: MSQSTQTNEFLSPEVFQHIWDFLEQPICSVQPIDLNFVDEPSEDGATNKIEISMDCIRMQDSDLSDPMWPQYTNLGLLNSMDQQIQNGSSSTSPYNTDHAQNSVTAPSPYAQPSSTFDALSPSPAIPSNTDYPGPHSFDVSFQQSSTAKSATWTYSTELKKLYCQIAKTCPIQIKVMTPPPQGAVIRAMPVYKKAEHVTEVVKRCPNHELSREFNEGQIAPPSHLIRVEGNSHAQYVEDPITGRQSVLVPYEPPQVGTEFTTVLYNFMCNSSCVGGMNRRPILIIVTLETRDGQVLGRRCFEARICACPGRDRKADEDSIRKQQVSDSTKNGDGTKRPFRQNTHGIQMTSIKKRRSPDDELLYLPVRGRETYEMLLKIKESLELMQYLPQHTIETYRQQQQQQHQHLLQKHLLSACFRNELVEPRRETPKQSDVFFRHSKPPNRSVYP

[2] = molecular target: T2, p53 (UniProt P04637 1-393); experiment: EMSA, supershift
[3] = molecular target: T2, p53; experiment: competition
[4] = molecular target: T1, TAp63γ; experiment: competition
[5] = molecular target: T2, p53; experiment: competition; remark: listed apart in the source
[6] = molecular target: T1, TAp63γ; experiment: competition; remark: listed apart in the source
[7] = molecular target: T2, p53; experiment: EMSA
[8] = molecular target: T1, TAp63γ; experiment: EMSA

T2 sequence (P04637 whole entry): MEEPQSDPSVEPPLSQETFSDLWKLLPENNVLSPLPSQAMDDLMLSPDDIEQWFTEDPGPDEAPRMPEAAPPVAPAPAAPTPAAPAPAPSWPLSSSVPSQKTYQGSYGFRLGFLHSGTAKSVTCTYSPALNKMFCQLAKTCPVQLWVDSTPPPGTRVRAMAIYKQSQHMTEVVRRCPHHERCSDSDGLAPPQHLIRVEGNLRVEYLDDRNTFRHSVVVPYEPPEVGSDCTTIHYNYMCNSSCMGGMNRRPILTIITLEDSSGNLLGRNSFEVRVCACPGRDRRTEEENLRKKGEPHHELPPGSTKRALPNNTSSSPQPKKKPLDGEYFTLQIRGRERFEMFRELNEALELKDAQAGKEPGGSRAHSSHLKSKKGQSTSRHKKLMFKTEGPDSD

B1: p21 (p21WAF1/CIP1 p53 site) (dsDNA)
DNA 1: GGCCATCAGGAACATGTCCCAACATGTTGAGCTCT
DNA 2: AGAGCTCAACATGTTGGGACATGTTCCTGATGGCC
binding result [1]: binds
binding result [2]: binds

B2: S100A2 site 2 mut-1 (dsDNA)
DNA 1: GGGTGGGATTGGATTGAGGTGGATTTGGTTTCCTT
DNA 2: AAGGAAACCAAATCCACCTCAATCCAATCCCACCC
binding result [3]: no binding
binding result [4]: no binding

B3: S100A2 site 2 mut-2 (dsDNA)
DNA 1: GGGTGGGATCATGTTGAGGCATGTTTGGTTTCCTT
DNA 2: AAGGAAACCAAACATGCCTCAACATGATCCCACCC
binding result [5]: binds
binding result [6]: binds

B4: mdm2 p53 site (dsDNA)
DNA 1: GGGCGGCCGCTGGTCAAGTTGGGACACGTCCGG
DNA 2: CCGGACGTGTCCCAACTTGACCAGCGGCCGCCC
binding result [7]: binds
binding result [8]: binds
